Numbering of substitutions follows the chain as printed.
T1: recombinant cynomolgus NKG2D-Fc fusion protein (cynomolgus; human, UniProt P61252 73-216)
T1 construct: extracellular domain; not shown: human IgG1 Fc domain
T1 sequence (looked up): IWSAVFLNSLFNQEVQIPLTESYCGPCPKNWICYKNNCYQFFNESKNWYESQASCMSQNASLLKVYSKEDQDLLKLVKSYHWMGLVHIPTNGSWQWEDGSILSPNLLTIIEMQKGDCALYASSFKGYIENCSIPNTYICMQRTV

B1: ADI-29378 (antibody, V domains shown)
VH: QVQLVQSGAEVKKPGASVKVSCKASGYTFTSYYMHWVRQAPGQGLEWMGIINPSGGSTSYAQKFQGRVTMTRDTSTSTVYMELSSLRSEDTAVYYCAREGAGFAYGMDYYYMDVWGKGTTVTVSS
VL: EIVLTQSPATLSLSPGERATLSCRASQSVSSYLAWYQQKPGQAPRLLIYDASNRATGIPARFSGSGSGTDFTLTISSLEPEDFAVYYCQQSDNWPFTFGGGTKVEIK
notes: also called E78
B2: ADI-27749 (antibody, V domains shown)
VH: EVQLVESGGGLVKPGGSLRLSCAASGFTFSSYSMNWVRQAPGKGLEWVSSISSSSSYIYYADSVKGRFTISRDNAKNSLYLQMNSLRAEDTAVYYCARGAPMGAAAGWFDPWGQGTLVTVSS
VL: DIQMTQSPSSVSASVGDRVTITCRASQGISSWLAWYQQKPGKAPKLLIYAASSLQSGVPSRFSGSGSGTDFTLTISSLQPEDFATYYCQQGVSFPRTFGGGTKVEIK
notes: also called A49
B3: ADI-27727 (antibody, V domains shown)
VH: QVQLVQSGAEVKKPGSSVKVSCKASGGTFSSYAISWVRQAPGQGLEWMGGIIPIFGTANYAQKFQGRVTITADESTSTAYMELSSLRSEDTAVYYCARGDSSIRHAYYYYGMDVWGQGTTVTVSS
VL: not shown
B4: ADI-29403 (antibody, V domains shown)
VH: QVQLQQWGAGLLKPSETLSLTCAVYGGSFSGYYWSWIRQPPGKGLEWIGEIDHSGSTNYNPSLKSRVTISVDTSKNQFSLKLSSVTAADTAVYYCARARGPWSFDPWGQGTLVTVSS
VL: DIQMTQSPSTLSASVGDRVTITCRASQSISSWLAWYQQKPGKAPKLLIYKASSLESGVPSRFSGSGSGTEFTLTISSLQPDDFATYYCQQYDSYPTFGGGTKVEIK
B5: ADI-27705 (antibody, V domains shown)
VH: B4 VH
VL: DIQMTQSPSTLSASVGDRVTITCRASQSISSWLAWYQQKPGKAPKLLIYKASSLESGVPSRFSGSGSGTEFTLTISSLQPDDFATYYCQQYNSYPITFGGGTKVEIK
B6: ADI-29424 (antibody, V domains shown)
VH: B4 VH
VL: DIQMTQSPSTLSASVGDRVTITCRASQSISSWLAWYQQKPGKAPKLLIYKASSLESGVPSRFSGSGSGTEFTLTISSLQPDDFATYYCQQYDSFITFGGGTKVEIK
B7: ADI-29407 (antibody, V domains shown)
VH: B4 VH
VL: B6 VL with D92Q, I95P
B8: ADI-29426 (antibody, V domains shown)
VH: B4 VH
VL: B6 VL with S30G, D92H, I95P
B9: ADI-29401 (antibody, V domains shown)
VH: B4 VH
VL: B6 VL with S30G, S93I, F94Y, I95P
B10: ADI-29419 (antibody, V domains shown)
VH: B4 VH
VL: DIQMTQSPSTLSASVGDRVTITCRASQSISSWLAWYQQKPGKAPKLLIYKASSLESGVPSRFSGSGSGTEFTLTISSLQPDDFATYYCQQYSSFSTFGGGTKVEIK
B11: ADI-29421 (antibody, V domains shown)
VH: B4 VH
VL: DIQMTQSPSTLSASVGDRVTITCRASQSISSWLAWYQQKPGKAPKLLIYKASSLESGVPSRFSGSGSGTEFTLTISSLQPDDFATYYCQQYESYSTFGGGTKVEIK
B12: ADI-29405 (antibody, V domains shown)
VH: B4 VH
VL: B6 VL with D92G, I95P
B13: ADI-29404 (antibody, V domains shown)
VH: B4 VH
VL: B6 VL with Q89E, F94Y, I95P
notes: also called F04
B14: ADI-27741 (antibody, V domains shown)
VH: B4 VH
VL: B6 VL with S30G, Y91S, D92N, F94Y, I95Y
B15: ADI-27743 (antibody, V domains shown)
VH: B4 VH
VL: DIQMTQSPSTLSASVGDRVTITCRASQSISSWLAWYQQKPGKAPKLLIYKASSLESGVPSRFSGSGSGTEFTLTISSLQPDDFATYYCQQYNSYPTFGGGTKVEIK
B16: ADI-29399 (antibody, V domains shown)
VH: B4 VH
VL: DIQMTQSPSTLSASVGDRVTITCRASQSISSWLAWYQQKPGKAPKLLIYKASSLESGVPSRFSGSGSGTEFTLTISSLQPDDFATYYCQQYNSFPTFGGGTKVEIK
B17: ADI-27740 (antibody, V domains shown)
VH: B4 VH
VL: B6 VL with S30G, D92H, I95Y
notes: also called A40
B18: ADI-29429 (antibody, V domains shown)
VH: B4 VH
VL: DIQMTQSPSTLSASVGDRVTITCRASQSIGSWLAWYQQKPGKAPKLLIYKASSLESGVPSRFSGSGSGTEFTLTISSLQPDDFATYYCQQYELYSYTFGGGTKVEIK
B19: ADI-29447 (antibody, V domains shown)
VH: B4 VH
VL: B6 VL with S93T
notes: also called F47
B20: ADI-28226 (antibody, V domains shown)
VH: B4 VH
VL: B18 VL with G30S, E92G, L93S, Y94F, S95P, Y96I
notes: also called C26
B21: ADI-29425 (antibody, V domains shown)
VH: B4 VH
VL: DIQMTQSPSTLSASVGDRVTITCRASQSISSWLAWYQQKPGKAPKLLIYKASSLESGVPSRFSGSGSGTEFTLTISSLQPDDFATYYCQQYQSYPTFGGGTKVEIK

Each binder was assayed against T1, recombinant cynomolgus NKG2D-Fc fusion … (assay: ELISA on coated NKG2D-Fc).

Binding result, binds:
B1
B2
B3
B4
B5
B6
B7
B8
B9
B10
B11
B12
B13
B14
B15
B16
B17
B18
B19
B20
B21

— patent US20200231679A1 (DRAGONFLY THERAPEUTICS, published 2020)
